Data reported in the supplement of paper PMC10065799, “High-throughput profiling of sequence recognition by tyrosine kinases and SH2 domains using bacterial peptide display” (eLife, 2023).

These sequences were tested against Hck (UniProt P08631) (assay: phosphorylation enrichment, bacterial display (enrichment ratio); higher = better substrate or ligand; peptides without Tyr show the background).
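Note: 11-residue human phosphosite peptides and single-mutation variants displayed on the E. coli surface, counted by deep sequencing, each peptide's frequency after selection divided by its frequency in the unselected input library; frequency after pTyr selection over input frequency; kinase dosed for 20-30% of maximal phosphorylation in three min.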

Sequence of Hck (P08631 whole entry, looked up): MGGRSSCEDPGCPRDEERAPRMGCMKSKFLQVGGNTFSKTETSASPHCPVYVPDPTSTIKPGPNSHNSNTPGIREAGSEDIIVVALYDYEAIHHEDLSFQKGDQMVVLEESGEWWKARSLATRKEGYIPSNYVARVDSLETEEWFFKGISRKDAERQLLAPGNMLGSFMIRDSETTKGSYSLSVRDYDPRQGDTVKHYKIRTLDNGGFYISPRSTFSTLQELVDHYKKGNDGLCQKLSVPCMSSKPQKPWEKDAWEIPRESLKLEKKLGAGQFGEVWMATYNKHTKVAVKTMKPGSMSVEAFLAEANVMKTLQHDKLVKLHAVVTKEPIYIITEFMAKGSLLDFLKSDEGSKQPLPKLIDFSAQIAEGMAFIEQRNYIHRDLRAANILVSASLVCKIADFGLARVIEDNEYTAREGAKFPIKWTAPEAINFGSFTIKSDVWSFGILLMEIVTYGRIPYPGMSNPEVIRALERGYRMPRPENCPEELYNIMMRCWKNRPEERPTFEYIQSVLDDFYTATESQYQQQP

| Sequence | phosphorylation enrichment |
| --- | --- |
| TVEDHDYEGGI [TKT_Y563_Y563D] | 0.5 |
| FEEDSYVERSQ [RET_Y905_K907E_YF] | 0.457 |
| DDEESYENVPR [FCRL3_Y722_N721S] | 0.481 |
| LVSCAYQVARG [FGFR1_Y605] | 0.609 |
| ILKPDYQPLAV [HYDIN_Y1072_I1077V] | 0.456 |
| GGTTMYPGIAD [ACTC1_Y308] | 0.437 |
| PIPAAYNKFDQ [CDC73_Y290_R292K_YF] | 0.661 |
| KLKRSYSSRDI [USP8_Y717_P720R] | 0.327 |
| EEETDYTPVWC [UROD_Y30_G25E] | 0.578 |
| NQELIYEGRRL [TBK1_Y354] | 9.83 |
| DESEDCRDTVV [CNNM3_Y456_Y456C] | 0.587 |
| GDYYRYLAEVA [YWHAG_Y133] | 1.31 |
| SGGGLYRDMGA [CBX8_Y321] | 0.428 |
| DYDHSYYFIAT [ESD_Y262_G257D] | 2.24 |
| YQEPVYSVAFS [TBL1X_Y509_H504Y] | 11.1 |
| KERNQYGGVMV [MMP21_Y347_E349G] | 0.474 |
| SQETFYRVSNM [ABCD1_Y181_Q178E_YF] | 0.457 |

| Sequence | phosphorylation enrichment |
| --- | --- |
| RSSGSYGGGGQ [HNRNPA1_Y341_P340S] | 0.423 |
| PLDGEYFILQI [TP53_Y327_T329I] | 1.88 |
| SSNLYYRWLTA [CNGA3_Y169] | 4.9 |
| SCPANYFAFKI [FAM3D_Y65_P60S] | 1.05 |
| GDKKAYVRLAP [RPL23A_Y137_E133D] | 0.482 |
| ADLTEYLSTHY [UQCRC1_Y219] | 0.555 |
| TLGPFYPSLLF [CRYAA_Y18_R21L] | 0.51 |
| PDDPSYSLVDD [PSTPIP2_Y323_N322S] | 0.679 |
| AVRYIYTIDGS [DCX_Y105_G100A] | 1.41 |
| FADTAYNYRHG [PAH_Y166_I164T] | 0.514 |
| GRQGIYTENKR [GPR143_Y231_E235K] | 0.437 |
| ASFSLYEPAKM [MKI67_Y340_P338S] | 3.48 |
| IKNSGYISQYL [EIF2AK3_Y585_R588Q] | 0.39 |
| DYTEAYNPKIK [CLK1_Y305] | 0.596 |
| KRLKDYLMVLQ [USP25_Y425_T427M] | 0.515 |
| MSSLPYMKMIF [SLC4A11_Y853] | 0.692 |

Each sequence was assayed on Fer (mouse) in the same assay as above.

| Sequence | phosphorylation enrichment |
| --- | --- |
| TVEDHDYEGGI [TKT_Y563_Y563D] | 0.559 |
| FEEDSYVERSQ [RET_Y905_K907E_YF] | 0.575 |
| DDEESYENVPR [FCRL3_Y722_N721S] | 0.427 |
| LVSCAYQVARG [FGFR1_Y605] | 0.505 |
| ILKPDYQPLAV [HYDIN_Y1072_I1077V] | 0.387 |
| GGTTMYPGIAD [ACTC1_Y308] | 0.408 |
| PIPAAYNKFDQ [CDC73_Y290_R292K_YF] | 0.798 |
| KLKRSYSSRDI [USP8_Y717_P720R] | 0.371 |
| EEETDYTPVWC [UROD_Y30_G25E] | 0.771 |
| NQELIYEGRRL [TBK1_Y354] | 8.54 |
| DESEDCRDTVV [CNNM3_Y456_Y456C] | 0.515 |
| GDYYRYLAEVA [YWHAG_Y133] | 0.476 |
| SGGGLYRDMGA [CBX8_Y321] | 0.373 |
| DYDHSYYFIAT [ESD_Y262_G257D] | 1.49 |
| YQEPVYSVAFS [TBL1X_Y509_H504Y] | 17.5 |
| KERNQYGGVMV [MMP21_Y347_E349G] | 0.474 |
| SQETFYRVSNM [ABCD1_Y181_Q178E_YF] | 0.443 |

| Sequence | phosphorylation enrichment |
| --- | --- |
| RSSGSYGGGGQ [HNRNPA1_Y341_P340S] | 0.438 |
| PLDGEYFILQI [TP53_Y327_T329I] | 0.978 |
| SSNLYYRWLTA [CNGA3_Y169] | 1.98 |
| SCPANYFAFKI [FAM3D_Y65_P60S] | 0.785 |
| GDKKAYVRLAP [RPL23A_Y137_E133D] | 0.411 |
| ADLTEYLSTHY [UQCRC1_Y219] | 0.553 |
| TLGPFYPSLLF [CRYAA_Y18_R21L] | 0.544 |
| PDDPSYSLVDD [PSTPIP2_Y323_N322S] | 0.728 |
| AVRYIYTIDGS [DCX_Y105_G100A] | 0.439 |
| FADTAYNYRHG [PAH_Y166_I164T] | 0.552 |
| GRQGIYTENKR [GPR143_Y231_E235K] | 0.346 |
| ASFSLYEPAKM [MKI67_Y340_P338S] | 9.33 |
| IKNSGYISQYL [EIF2AK3_Y585_R588Q] | 0.323 |
| DYTEAYNPKIK [CLK1_Y305] | 0.358 |
| KRLKDYLMVLQ [USP25_Y425_T427M] | 0.507 |
| MSSLPYMKMIF [SLC4A11_Y853] | 1.05 |

The sequences below were run against Jak2 (UniProt O60674) in the same assay as above.
Sequence of Jak2 (O60674 whole entry, looked up): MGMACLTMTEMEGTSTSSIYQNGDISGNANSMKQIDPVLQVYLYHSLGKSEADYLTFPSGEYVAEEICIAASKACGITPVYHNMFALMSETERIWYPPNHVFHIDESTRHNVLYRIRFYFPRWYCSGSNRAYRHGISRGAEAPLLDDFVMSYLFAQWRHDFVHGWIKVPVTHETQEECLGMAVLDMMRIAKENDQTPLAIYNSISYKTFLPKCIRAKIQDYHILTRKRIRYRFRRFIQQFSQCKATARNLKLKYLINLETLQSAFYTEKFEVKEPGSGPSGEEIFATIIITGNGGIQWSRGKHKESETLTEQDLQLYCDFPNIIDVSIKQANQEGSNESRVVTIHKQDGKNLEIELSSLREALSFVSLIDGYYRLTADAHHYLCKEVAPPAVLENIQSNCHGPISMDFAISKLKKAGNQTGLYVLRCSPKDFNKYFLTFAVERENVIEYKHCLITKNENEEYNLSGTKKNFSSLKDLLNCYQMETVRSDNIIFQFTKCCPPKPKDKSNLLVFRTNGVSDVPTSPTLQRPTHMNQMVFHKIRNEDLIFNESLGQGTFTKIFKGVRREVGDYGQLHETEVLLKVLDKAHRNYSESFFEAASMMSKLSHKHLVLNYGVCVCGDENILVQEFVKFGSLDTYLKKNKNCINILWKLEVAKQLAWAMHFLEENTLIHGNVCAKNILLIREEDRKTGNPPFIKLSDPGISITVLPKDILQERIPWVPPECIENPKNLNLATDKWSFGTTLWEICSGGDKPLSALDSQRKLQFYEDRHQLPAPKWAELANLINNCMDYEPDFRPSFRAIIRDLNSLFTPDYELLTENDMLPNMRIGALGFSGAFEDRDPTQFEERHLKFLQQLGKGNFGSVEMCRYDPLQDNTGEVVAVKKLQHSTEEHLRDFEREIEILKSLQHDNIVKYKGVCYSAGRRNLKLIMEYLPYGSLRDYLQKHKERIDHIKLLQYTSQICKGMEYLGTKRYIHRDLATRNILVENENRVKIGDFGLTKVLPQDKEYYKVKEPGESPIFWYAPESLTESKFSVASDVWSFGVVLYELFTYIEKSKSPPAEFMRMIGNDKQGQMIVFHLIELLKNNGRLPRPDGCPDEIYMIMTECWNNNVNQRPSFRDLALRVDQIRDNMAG

| Sequence | phosphorylation enrichment |
| --- | --- |
| TVEDHDYEGGI [TKT_Y563_Y563D] | 0.963 |
| FEEDSYVERSQ [RET_Y905_K907E_YF] | 1.08 |
| DDEESYENVPR [FCRL3_Y722_N721S] | 1.06 |
| LVSCAYQVARG [FGFR1_Y605] | 0.657 |
| ILKPDYQPLAV [HYDIN_Y1072_I1077V] | 0.617 |
| GGTTMYPGIAD [ACTC1_Y308] | 0.766 |
| PIPAAYNKFDQ [CDC73_Y290_R292K_YF] | 0.653 |
| KLKRSYSSRDI [USP8_Y717_P720R] | 0.51 |
| EEETDYTPVWC [UROD_Y30_G25E] | 1.16 |
| NQELIYEGRRL [TBK1_Y354] | 0.581 |
| DESEDCRDTVV [CNNM3_Y456_Y456C] | 1.03 |
| GDYYRYLAEVA [YWHAG_Y133] | 5.81 |
| SGGGLYRDMGA [CBX8_Y321] | 0.557 |
| DYDHSYYFIAT [ESD_Y262_G257D] | 7.22 |
| YQEPVYSVAFS [TBL1X_Y509_H504Y] | 0.989 |
| KERNQYGGVMV [MMP21_Y347_E349G] | 0.425 |
| SQETFYRVSNM [ABCD1_Y181_Q178E_YF] | 0.7 |

| Sequence | phosphorylation enrichment |
| --- | --- |
| RSSGSYGGGGQ [HNRNPA1_Y341_P340S] | 0.354 |
| PLDGEYFILQI [TP53_Y327_T329I] | 2.88 |
| SSNLYYRWLTA [CNGA3_Y169] | 4.69 |
| SCPANYFAFKI [FAM3D_Y65_P60S] | 5.24 |
| GDKKAYVRLAP [RPL23A_Y137_E133D] | 0.732 |
| ADLTEYLSTHY [UQCRC1_Y219] | 0.908 |
| TLGPFYPSLLF [CRYAA_Y18_R21L] | 0.776 |
| PDDPSYSLVDD [PSTPIP2_Y323_N322S] | 1.75 |
| AVRYIYTIDGS [DCX_Y105_G100A] | 0.972 |
| FADTAYNYRHG [PAH_Y166_I164T] | 0.509 |
| GRQGIYTENKR [GPR143_Y231_E235K] | 0.527 |
| ASFSLYEPAKM [MKI67_Y340_P338S] | 0.954 |
| IKNSGYISQYL [EIF2AK3_Y585_R588Q] | 0.617 |
| DYTEAYNPKIK [CLK1_Y305] | 0.641 |
| KRLKDYLMVLQ [USP25_Y425_T427M] | 0.595 |
| MSSLPYMKMIF [SLC4A11_Y853] | 1.65 |

These sequences were tested against EPHB2 (UniProt P29323) in the same assay as above.
Sequence of EPHB2 (P29323 whole entry, looked up): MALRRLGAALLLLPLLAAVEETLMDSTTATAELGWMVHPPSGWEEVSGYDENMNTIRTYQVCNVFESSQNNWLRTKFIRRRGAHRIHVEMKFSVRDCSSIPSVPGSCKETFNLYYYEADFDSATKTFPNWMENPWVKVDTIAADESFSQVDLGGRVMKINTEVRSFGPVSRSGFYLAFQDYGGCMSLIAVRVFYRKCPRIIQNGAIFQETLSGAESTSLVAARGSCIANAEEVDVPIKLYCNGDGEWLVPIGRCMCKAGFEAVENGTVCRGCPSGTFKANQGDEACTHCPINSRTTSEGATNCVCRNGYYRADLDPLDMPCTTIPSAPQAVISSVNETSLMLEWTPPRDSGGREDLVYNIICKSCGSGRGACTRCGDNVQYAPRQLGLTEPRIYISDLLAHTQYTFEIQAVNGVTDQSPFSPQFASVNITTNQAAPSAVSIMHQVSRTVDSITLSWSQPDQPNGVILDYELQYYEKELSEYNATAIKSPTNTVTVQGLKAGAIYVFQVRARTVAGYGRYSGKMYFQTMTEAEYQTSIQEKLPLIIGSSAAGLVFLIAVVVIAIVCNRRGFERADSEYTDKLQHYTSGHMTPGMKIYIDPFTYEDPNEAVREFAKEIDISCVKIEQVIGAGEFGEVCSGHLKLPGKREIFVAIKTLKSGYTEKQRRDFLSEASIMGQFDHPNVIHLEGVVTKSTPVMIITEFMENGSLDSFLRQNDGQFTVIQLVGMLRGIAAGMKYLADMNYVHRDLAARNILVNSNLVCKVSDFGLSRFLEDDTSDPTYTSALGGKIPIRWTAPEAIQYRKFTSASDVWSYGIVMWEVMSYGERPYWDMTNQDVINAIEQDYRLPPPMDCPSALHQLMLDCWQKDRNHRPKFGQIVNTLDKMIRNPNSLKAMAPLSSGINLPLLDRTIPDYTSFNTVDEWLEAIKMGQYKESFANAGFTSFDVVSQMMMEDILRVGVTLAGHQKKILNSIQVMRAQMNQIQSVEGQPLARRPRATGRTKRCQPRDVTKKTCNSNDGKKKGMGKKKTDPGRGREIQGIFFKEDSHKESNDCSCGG

| Sequence | phosphorylation enrichment |
| --- | --- |
| TVEDHDYEGGI [TKT_Y563_Y563D] | 0.583 |
| FEEDSYVERSQ [RET_Y905_K907E_YF] | 0.621 |
| DDEESYENVPR [FCRL3_Y722_N721S] | 0.548 |
| LVSCAYQVARG [FGFR1_Y605] | 0.612 |
| ILKPDYQPLAV [HYDIN_Y1072_I1077V] | 0.42 |
| GGTTMYPGIAD [ACTC1_Y308] | 0.419 |
| PIPAAYNKFDQ [CDC73_Y290_R292K_YF] | 1.39 |
| KLKRSYSSRDI [USP8_Y717_P720R] | 0.409 |
| EEETDYTPVWC [UROD_Y30_G25E] | 0.589 |
| NQELIYEGRRL [TBK1_Y354] | 0.668 |
| DESEDCRDTVV [CNNM3_Y456_Y456C] | 0.597 |
| GDYYRYLAEVA [YWHAG_Y133] | 3.79 |
| SGGGLYRDMGA [CBX8_Y321] | 0.624 |
| DYDHSYYFIAT [ESD_Y262_G257D] | 3.27 |
| YQEPVYSVAFS [TBL1X_Y509_H504Y] | 26.2 |
| KERNQYGGVMV [MMP21_Y347_E349G] | 0.394 |
| SQETFYRVSNM [ABCD1_Y181_Q178E_YF] | 0.528 |

| Sequence | phosphorylation enrichment |
| --- | --- |
| RSSGSYGGGGQ [HNRNPA1_Y341_P340S] | 0.606 |
| PLDGEYFILQI [TP53_Y327_T329I] | 2.04 |
| SSNLYYRWLTA [CNGA3_Y169] | 1.91 |
| SCPANYFAFKI [FAM3D_Y65_P60S] | 2.09 |
| GDKKAYVRLAP [RPL23A_Y137_E133D] | 0.435 |
| ADLTEYLSTHY [UQCRC1_Y219] | 0.622 |
| TLGPFYPSLLF [CRYAA_Y18_R21L] | 0.541 |
| PDDPSYSLVDD [PSTPIP2_Y323_N322S] | 0.8 |
| AVRYIYTIDGS [DCX_Y105_G100A] | 0.552 |
| FADTAYNYRHG [PAH_Y166_I164T] | 0.362 |
| GRQGIYTENKR [GPR143_Y231_E235K] | 0.347 |
| ASFSLYEPAKM [MKI67_Y340_P338S] | 5.28 |
| IKNSGYISQYL [EIF2AK3_Y585_R588Q] | 0.375 |
| DYTEAYNPKIK [CLK1_Y305] | 0.453 |
| KRLKDYLMVLQ [USP25_Y425_T427M] | 0.545 |
| MSSLPYMKMIF [SLC4A11_Y853] | 0.541 |
